The target in series [1] is T1, AviGO (glycine oxidase from A. vinelandii) (Azotobacter vinelandii, UniProt C1DPI5).
T1 construct: gene thiO; codon-optimised synthetic gene in pCold I (NdeI/XbaI), expressed in E. coli BL21(DE3); HisTrap then Q-Sepharose, vector His tag, no cleavage told
T1 sequence (C1DPI5 1-363): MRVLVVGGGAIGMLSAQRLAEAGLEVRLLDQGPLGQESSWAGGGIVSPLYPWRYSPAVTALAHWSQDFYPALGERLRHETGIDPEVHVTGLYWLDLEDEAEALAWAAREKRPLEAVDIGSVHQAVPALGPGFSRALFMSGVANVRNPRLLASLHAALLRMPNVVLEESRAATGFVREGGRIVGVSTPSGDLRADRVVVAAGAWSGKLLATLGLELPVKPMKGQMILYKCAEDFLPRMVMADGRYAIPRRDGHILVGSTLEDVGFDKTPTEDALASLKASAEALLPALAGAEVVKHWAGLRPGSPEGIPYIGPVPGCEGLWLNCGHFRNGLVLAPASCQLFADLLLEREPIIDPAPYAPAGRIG
Description: HRP-coupled H2O2 assay (4-aminoantipyrine / N,N-diethylaniline, […] nm), substrate inhibition model. The series is classed as biochemical. Particulars: substrate inhibition constant; 100 mM Tris-HCl pH 8.5, free enzyme 20 nM.

Series [2] addresses T1, AviGO (glycine oxidase from A. vinelandii). As to the kind of experiment: UV-visible spectroscopy of the purified enzyme. It counts as binding. The following applies: copurified cofactor; occupancy, no affinity constant. As for the experimental part:
UV-visible spectroscopy of the purified enzyme on AviGO (glycine oxidase from A. vinelandii) | The FAD/AviGO ratio was calculated from UV-visible spectroscopy of the purified enzyme

Substrate in series [3]: CNCC(=O)O
Description: purified protein. The series is classed as biochemical, Azotobacter vinelandii. Particulars: 100 mM Tris-HCl pH 8.5, free enzyme 20 nM, 0.5-100 mM substrate.

Substrate in series [4]: NCC(=O)O
As to the kind of experiment: purified protein. It counts as biochemical, Azotobacter vinelandii. The following applies: 100 mM Tris-HCl pH 8.5, free enzyme 20 nM, 0.5-100 mM substrate, abstract prints Km 4.65.

As for `NCC(=O)O` [glycine], the “Glycine / ksi” value in series [1] was found to be 23.00 ± 3.71 mM.
Turning to `Cc1cc2nc3c(=O)[nH]c(=O)nc-3n(C[C@H](O)[C@H](O)[C@H](O)COP(=O)(O)OP(=O)(O)OC[C@H]3O[C@@H](n4cnc5c(N)ncnc54)[C@H](O)[C@@H]3O)c2cc1C` [FAD], the FAD/AviGO ratio in series [2] amounted to 0.38.

B1: AviGO (glycine oxidase from A. vinelandii) (Azotobacter vinelandii DJ) (protein)
chain: T1 sequence (C1DPI5 1-363)
notes: codon-optimised synthetic gene in pCold I (NdeI/XbaI), expressed in E. coli BL21(DE3); HisTrap then Q-Sepharose, vector His tag, no cleavage told
Take B1: the Km in the series “purified protein [3]” is reported as 11.09 ± 0.75 mM; in the series “purified protein [4]”, 4.76 ± 0.83 mM. Further, the kcat in “purified protein [3]” is 0.62 ± 0.01 s⁻¹; in “purified protein [4]” it was 0.38 ± 0.03 s⁻¹.

In general, Km refers to the substrate concentration at which the rate is half of its maximum. One may read the kcat as the maximal rate divided by the concentration of active sites.

The values above are taken from PMC12605379, “Monomeric Glycine oxidase from Azotobacter vinelandii for Glycine biosensing” (World Journal of Microbiology & Biotechnology, 2025).
